First the molecules themselves.
B1: HDV Ribozyme (parent)
chain: GGCCGGCAUGGUCCCAGCCUCCUCGCUGGCGCCGGCUGGGCAACAUUCCGAGGGGACCGUCCCCUCGGUAAUGGCGAAUGGGACCCA

These results are taken from the RNAGym collection of RNA variant scans (doi:10.7554/elife.80360).

The data set covers variants of B1. Description: self-cleavage, relative activity (ratio to wild type); higher = more cleavage; co-transcriptional.
As to GGCCGGCAUGGUCCCAGCCUCCUCGCUGGCGCCUGCUGGGCAACAUUCCGAGGUGACCGUCCCCUCGGUAAUGGCGAAUGGGACCCA, the self-cleavage was 0.0923. For GGCCGGCAUGGUCCCAGCCUCCUCGCUGGCGCCGGCUGGGCAACAUUCCGAGGGGACCGUCCCCUCGGUGAUGGCGAAUGGGACUCA, the self-cleavage was 1.01.

With GGCCGGCAUGGUCCCAGCCUCCUCGCUGGCGCCGGCUGGGCAACAUUCCGACGGGACCGUCCCCUCGGUAAUGGCGAAUGAGACCCA, the self-cleavage amounted to 0.563. As for GGCCGGCAUGGUCCCAGCCUCCUCGCUGGCGCCGGCUGGGCAACAAUCCGAGGGCACCGUCCCCUCGGUAAUGGCGAAUGGGACCCA, the self-cleavage was found to be 0.682. In the case of GGCCGGCAUGGUCCCAGCCUCCUCGCUGGCGCCGGCUGGGCAACAUUCCGAGGGGACCGUCCCCUCCGUAAUUGCGAAUGGGACCCA it was 0.322; in that of GGCCGGCAUGAUCCCAGCCUCCUCGCUGGCGCCGGCAGGGCAACAUUCCGAGGGGACCGUCCCCUCGGUAAUGGCGAAUGGGACCCA, 0.0567; in that of GGCCGGCAUGGUCCCAGCAUCCUCACUGGCGCCGGCUGGGCAACAUUCCGAGGGGACCGUCCCCUCGGUAAUGGCGAAUGGGACCCA, 0.138. The figure for GGCCGGCAUGGUCCCAGCCUCCUCGCUGGCGCCGGCUGGGCAACAUUCCGAGGGGGCCGUCCCCUCGGUAAUGGCGACUGGGACCCA is 0.203; for GGCCGGCAUGGUCCCAACCUCCUCGCUGGUGCCGGCUGGGCAACAUUCCGAGGGGACCGUCCCCUCGGUAAUGGCGAAUGGGACCCA it is 0.986. Turning to GGCCGGCAUGGUCCCAGCCUCCUCGCUGGCGCCGGCUCGGCAACAUUCCGAGGGGACCGUCCCCUCGGUAACGGCGAAUGGGACCCA, the self-cleavage stood at 0.341. GGCCGGCAUGGUCCCAGCCUCCUCGCUGGCGCCGGCUGUGCAACAUUCCGAGGGGACCGUCCCCUCGGUCAUGGCGAAUGGGACCCA: the self-cleavage was 0.536. The figure for GGCCGGCAUUGUCCCAGCCUCCUCGCUGGCGCCGGCUGGGCAACAUUCCGAGGGGCCCGUCCCCUCGGUAAUGGCGAAUGGGACCCA is 0.878. For GGCCUGCAUGGUCCCAGCCCCCUCGCUGGCGCCGGCUGGGCAACAUUCCGAGGGGACCGUCCCCUCGGUAAUGGCGAAUGGGACCCA, the self-cleavage was determined as 0.

In the case of GGCCGGCAUGGUGCCAGCCUCCUCGCUGGCGCCGGCUGGGCAACAUUCCGAGGGGACCGUCCCCUCGGUAUUGGCGAAUGGGACCCA, the self-cleavage worked out at 0. In the case of GGCCGUCAUGGUCCCAGCCUCCGCGCUGGCGCCGGCUGGGCAACAUUCCGAGGGGACCGUCCCCUCGGUAAUGGCGAAUGGGACCCA it was 0.178.

Regarding GGCCGGCAUGGUCCCAGCCUCCUCGCUGGCGCCGGCUGGGCAACAUUCCGAGGGGGACGUCCCCUCGGUAAUGGCGAAUGGGACCCA, the self-cleavage worked out at 0.847.

GGCCGGCACGGUCCCAGCCUCCUCGCUGGCGCCGGCUGGGCAACAUACCGAGGGGACCGUCCCCUCGGUAAUGGCGAAUGGGACCCA: the self-cleavage came to 1.11. As to GGCCGGCAUGGUCCCAGCCUCCUCGCUGGCGCCGGCUGGGCAACAGUCCGAGGGGACCGUCCCCUCUGUAAUGGCGAAUGGGACCCA, the self-cleavage is 0.302. On to GGCCGGCAUGGUCCCAGCCUCCUCGCUGGCGCGGGCUGGGCAACAUUCCGAGGGGACCGUCCCCUCGGUAAUGGCGAAGGGGACCCA, for which the self-cleavage was 0.0665. In the case of GCACGGCAUGGUCCCAGCCUCCUCGCUGGCGCCGGCUGGGCAACAUUCCGAGGGGACCGUCCCCUCGGUAAUGGCGAAUGGGACCCA, the self-cleavage stood at 0.103. For the variant GCUCGGCAUGGUCCCAGCCUCCUCGCUGGCGCCGGCUGGGCAACAUUCCGAGGGGACCGUCCCCUCGGUAAUGGCGAAUGGGACCCA, the self-cleavage was found to be 0.102. Regarding GGCCGGCAUGGUCCCAGCCUCCUCGCUGGCGCCGGCUGGGCACCAUUCCGAGGGGACCGUCCCCUCGGUAAUGGCGAAUGGCACCCA, the self-cleavage came out at 0. GGCCGGCAUGGUCCCAGCCUCCUCGCUGGCGCCGGCUGGGCAACAAUCCGAGGGGACCGUCCCCUCGGUAAUGGCCAAUGGGACCCA: the self-cleavage turned out to be 0.665.

For the variant GGCCGGCAUGGUCCCAGCCUCCUCGCUGGCGCCAGCUGGGCAACAUUACGAGGGGACCGUCCCCUCGGUAAUGGCGAAUGGGACCCA, the self-cleavage stood at 0.259. As for GGCCGGCAUGGUCCCAGCCUCCUCGCCGGCGCCGGCUGGGCAACAUUCCGAGGGGACCGACCCCUCGGUAAUGGCGAAUGGGACCCA, the self-cleavage stood at 1.09. The figure for GGCCGGCAUGGUCCCAGCCUCCUCGCUGGCGCCGGCUCGGCAACAUUCCGAGGGGACCGUCCCCUCGGUAAUGCCGAAUGGGACCCA is 0.148. Turning to GGCGGGCAUGGUCCCAGCCUCCUCGCUGGCGCCGGCUGGGCAACAUUCCGAGGGGACCGUCCCCUCGGUAAUGGCGAAUGGGCCCCA, the self-cleavage came out at 0.102. Consider GGCCGGCAUGGUCCCAGCCUCCUCGCUGGCGCCGGCUGGGCAACAUUCCGAGGUGACCGUCCCAUCGGUAAUGGCGAAUGGGACCCA, for which the self-cleavage turned out to be 0.486.

In the case of GGCCGGCAUGGUCCCACCCUCCUCGCUGGCGCCGGCUGGGCAACAUUCCGAGGGGACCGUCCCCUCGGUAAUAGCGAAUGGGACCCA, the self-cleavage turned out to be 0.156.

Consider GGCCGGCAUGGUCCCAGCCUCCUCGCUGGCGCCGGCUGGGCAACAUUCCGAGGGGACCGUCCCCUCGGUAAUGGCCAAUGCGACCCA, for which the self-cleavage was 0.0875.

Consider GGCAGGCAUGGUCCCAGCCUCCUCGCUGGCGCCGGCUGGGCAACAUUCCGAGGGGACCGUCCCCUGGGUAAUGGCGAAUGGGACCCA, for which the self-cleavage is 0.289. For the variant GGCCGGCAUGGUCCCGGCCUCCUCGCUGGCGCCGGCUGGGCAACAUUCCGAGGGGACCGUCCCCUCGGUAACGGCGAAUGGGACCCA, the self-cleavage turned out to be 0.831.
